Experiments:
[1] = molecular target: Grb2 SH2 (UniProt P62993); assay: SH2 binding enrichment of the phosphorylated peptide, bacterial display (enrichment ratio); higher = better substrate or ligand; peptides without Tyr show the background
[2] = molecular target: c-Src SH2; assay: as above
[3] = molecular target: SHP2-C SH2; assay: as above
[4] = tested on: Fer (mouse); assay: phosphorylation enrichment, bacterial display (enrichment ratio); higher = better substrate or ligand; peptides without Tyr show the background
[5] = molecular target: MERTK (UniProt Q12866); assay: as above
[6] = tested on: c-Abl (mouse); assay: as above
[7] = molecular target: Hck (UniProt P08631); assay: as above
[8] = tested on: AncSZ; assay: as above
[9] = molecular target: FGFR3 (UniProt P22607); assay: as above
FGFR3, sequence (P22607 whole entry, looked up): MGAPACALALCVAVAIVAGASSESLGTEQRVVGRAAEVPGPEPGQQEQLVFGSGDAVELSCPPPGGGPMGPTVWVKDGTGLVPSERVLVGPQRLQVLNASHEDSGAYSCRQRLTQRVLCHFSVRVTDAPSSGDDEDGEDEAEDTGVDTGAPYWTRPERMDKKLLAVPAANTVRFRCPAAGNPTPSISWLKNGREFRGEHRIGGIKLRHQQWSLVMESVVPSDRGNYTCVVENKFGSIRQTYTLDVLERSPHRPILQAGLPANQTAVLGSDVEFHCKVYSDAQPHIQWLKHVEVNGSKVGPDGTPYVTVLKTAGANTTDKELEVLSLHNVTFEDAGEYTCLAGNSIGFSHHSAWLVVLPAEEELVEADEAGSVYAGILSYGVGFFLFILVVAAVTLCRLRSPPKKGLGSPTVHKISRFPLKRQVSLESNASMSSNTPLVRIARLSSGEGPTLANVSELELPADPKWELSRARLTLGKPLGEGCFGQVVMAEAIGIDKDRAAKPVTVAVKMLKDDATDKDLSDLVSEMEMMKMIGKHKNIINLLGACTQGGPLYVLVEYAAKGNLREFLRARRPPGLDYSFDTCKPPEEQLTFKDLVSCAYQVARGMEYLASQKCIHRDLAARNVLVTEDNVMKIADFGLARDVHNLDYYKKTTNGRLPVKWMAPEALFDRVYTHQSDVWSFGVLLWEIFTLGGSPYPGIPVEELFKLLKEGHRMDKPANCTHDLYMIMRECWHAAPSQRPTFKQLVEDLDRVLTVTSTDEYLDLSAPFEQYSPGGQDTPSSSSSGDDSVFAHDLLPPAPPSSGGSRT

[10] = molecular target: Fes (UniProt P07332); assay: as above
[11] = molecular target: FGFR1 (UniProt P11362); assay: as above
[12] = molecular target: EPHB1 (UniProt P54762); assay: as above
EPHB1, sequence (P54762 whole entry, looked up): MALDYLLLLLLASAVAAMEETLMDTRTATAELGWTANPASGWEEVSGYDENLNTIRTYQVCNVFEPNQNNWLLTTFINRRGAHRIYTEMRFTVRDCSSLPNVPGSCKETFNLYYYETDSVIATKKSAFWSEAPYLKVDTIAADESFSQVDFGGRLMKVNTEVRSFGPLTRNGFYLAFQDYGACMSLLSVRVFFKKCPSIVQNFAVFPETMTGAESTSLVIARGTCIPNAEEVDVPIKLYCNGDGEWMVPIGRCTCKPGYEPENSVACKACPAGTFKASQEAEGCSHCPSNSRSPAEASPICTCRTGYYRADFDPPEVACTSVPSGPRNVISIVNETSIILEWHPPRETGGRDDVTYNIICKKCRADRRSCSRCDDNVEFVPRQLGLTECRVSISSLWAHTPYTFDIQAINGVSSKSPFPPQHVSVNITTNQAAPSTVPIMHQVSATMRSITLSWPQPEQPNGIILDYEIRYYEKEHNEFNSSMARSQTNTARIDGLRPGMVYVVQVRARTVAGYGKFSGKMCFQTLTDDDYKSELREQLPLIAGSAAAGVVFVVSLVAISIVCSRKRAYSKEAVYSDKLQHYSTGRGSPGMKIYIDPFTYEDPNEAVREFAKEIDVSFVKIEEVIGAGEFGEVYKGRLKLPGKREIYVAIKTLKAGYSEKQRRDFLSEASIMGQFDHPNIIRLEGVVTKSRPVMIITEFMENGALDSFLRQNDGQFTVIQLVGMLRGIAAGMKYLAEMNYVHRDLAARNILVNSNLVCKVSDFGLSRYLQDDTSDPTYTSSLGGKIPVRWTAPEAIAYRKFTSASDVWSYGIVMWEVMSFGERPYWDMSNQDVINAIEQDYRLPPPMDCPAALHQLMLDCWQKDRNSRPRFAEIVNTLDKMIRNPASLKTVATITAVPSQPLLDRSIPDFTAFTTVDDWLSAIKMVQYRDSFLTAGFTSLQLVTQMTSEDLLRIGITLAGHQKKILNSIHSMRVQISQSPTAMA

[13] = molecular target: Fyn (UniProt P06241); assay: as above
Fyn, sequence (P06241 whole entry, looked up): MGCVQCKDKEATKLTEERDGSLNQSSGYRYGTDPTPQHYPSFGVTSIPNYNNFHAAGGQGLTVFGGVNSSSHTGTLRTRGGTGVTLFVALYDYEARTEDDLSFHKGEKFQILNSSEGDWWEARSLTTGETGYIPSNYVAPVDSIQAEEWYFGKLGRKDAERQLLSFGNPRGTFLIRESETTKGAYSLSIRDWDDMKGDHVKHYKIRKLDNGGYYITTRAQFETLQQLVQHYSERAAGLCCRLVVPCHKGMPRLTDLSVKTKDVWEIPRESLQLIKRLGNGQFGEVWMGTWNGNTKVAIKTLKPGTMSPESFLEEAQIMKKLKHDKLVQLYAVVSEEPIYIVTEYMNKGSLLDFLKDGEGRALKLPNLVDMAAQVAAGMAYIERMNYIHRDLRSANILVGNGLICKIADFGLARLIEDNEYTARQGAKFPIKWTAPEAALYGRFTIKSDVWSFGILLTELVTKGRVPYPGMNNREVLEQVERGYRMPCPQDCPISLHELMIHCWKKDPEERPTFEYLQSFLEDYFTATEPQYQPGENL

[14] = tested on: c-Src; assay: as above
[15] = molecular target: Jak2 (UniProt O60674); assay: as above
Jak2, sequence (O60674 whole entry, looked up): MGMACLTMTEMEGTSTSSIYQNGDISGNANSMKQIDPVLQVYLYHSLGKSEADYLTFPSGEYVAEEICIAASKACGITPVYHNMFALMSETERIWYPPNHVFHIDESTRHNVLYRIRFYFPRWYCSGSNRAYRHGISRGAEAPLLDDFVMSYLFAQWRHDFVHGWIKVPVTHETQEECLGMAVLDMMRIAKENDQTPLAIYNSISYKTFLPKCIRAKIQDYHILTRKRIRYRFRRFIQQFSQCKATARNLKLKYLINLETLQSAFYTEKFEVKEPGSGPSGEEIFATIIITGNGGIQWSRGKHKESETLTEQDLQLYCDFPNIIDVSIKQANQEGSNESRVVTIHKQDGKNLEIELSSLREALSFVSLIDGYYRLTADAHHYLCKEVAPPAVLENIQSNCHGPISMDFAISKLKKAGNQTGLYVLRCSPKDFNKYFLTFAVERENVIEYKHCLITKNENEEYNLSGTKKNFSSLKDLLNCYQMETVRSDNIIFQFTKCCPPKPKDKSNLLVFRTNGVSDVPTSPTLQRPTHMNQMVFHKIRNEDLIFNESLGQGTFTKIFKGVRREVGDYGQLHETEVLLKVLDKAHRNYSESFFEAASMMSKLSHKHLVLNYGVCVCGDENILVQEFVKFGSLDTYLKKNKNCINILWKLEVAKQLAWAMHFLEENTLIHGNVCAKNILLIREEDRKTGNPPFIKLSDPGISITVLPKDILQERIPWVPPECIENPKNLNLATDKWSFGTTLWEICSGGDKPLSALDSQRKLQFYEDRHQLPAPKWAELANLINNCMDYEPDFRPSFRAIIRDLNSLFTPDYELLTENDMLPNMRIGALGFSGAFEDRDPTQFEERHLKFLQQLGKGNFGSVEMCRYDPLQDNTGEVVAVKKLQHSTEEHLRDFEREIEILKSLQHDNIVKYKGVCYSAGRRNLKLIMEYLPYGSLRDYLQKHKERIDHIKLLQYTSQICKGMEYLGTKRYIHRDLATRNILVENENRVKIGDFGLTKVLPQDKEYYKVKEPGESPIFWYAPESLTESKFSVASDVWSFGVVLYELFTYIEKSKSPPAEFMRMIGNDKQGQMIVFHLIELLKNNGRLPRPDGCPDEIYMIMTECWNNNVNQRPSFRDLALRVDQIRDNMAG

[16] = molecular target: EPHB2 (UniProt P29323); assay: as above
EPHB2, sequence (P29323 whole entry, looked up, the tested form may be a part): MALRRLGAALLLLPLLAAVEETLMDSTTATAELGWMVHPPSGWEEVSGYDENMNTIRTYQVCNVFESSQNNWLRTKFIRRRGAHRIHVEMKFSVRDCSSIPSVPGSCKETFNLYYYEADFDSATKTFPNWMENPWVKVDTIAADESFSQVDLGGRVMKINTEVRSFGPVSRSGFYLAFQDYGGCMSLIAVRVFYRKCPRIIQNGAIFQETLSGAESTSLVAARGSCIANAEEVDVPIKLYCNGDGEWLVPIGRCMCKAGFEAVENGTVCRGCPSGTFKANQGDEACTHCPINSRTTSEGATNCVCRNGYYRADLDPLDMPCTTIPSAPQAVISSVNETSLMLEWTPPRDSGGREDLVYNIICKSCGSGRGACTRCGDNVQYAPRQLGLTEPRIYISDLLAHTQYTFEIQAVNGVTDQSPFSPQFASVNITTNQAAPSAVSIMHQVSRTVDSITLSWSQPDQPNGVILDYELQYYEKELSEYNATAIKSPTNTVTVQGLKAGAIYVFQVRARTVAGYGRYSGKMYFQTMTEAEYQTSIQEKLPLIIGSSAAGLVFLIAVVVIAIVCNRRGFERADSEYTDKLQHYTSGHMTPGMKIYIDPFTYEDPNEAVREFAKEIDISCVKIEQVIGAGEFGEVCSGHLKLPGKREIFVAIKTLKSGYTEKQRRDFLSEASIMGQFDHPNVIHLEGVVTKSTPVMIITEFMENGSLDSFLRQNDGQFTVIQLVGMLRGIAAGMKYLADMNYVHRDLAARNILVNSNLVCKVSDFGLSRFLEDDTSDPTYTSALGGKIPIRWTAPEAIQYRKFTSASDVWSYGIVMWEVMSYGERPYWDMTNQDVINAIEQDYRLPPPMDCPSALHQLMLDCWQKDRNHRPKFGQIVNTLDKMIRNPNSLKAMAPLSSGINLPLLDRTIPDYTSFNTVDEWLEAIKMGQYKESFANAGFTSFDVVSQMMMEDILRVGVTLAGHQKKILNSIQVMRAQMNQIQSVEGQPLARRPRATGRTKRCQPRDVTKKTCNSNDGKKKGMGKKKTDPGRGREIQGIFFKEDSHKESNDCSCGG
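For SH2 binding enrichment of the phosphorylated peptide, bacterial display in this document: peptide library displayed on the E. coli surface as eCPX fusions, selected cells deep-sequenced, score is each peptide's frequency after selection divided by its frequency in the input.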
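For phosphorylation enrichment, bacterial display in this document: 11-residue human phosphosite peptides and single-mutation variants displayed on the E. coli surface, counted by deep sequencing, each peptide's frequency after selection divided by its frequency in the unselected input library; frequency after pTyr selection over input frequency; kinase dosed for 20-30% of maximal phosphorylation in three min.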

Grb2 SH2, sequence (P62993 whole entry, looked up): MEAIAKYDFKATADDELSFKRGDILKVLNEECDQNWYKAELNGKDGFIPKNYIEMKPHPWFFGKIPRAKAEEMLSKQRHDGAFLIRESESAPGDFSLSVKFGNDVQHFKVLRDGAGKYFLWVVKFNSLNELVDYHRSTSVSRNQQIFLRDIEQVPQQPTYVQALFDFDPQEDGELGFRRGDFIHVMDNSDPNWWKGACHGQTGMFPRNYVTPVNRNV

Row | Sequence | SH2 binding enrichment [1] | SH2 binding enrichment [2] | SH2 binding enrichment [3] | phosphorylation enrichment [4] | phosphorylation enrichment [5] | phosphorylation enrichment [6] | phosphorylation enrichment [7] | phosphorylation enrichment [8] | phosphorylation enrichment [9] | phosphorylation enrichment [10] | phosphorylation enrichment [11] | phosphorylation enrichment [12] | phosphorylation enrichment [13] | phosphorylation enrichment [14] | phosphorylation enrichment [15] | phosphorylation enrichment [16]
1 | TTPYNYSYIFK [RAB14_Y8_A4T] | 0.711 | 10.3 | 2.78 | 0.97 | 5.37 | 0.706 | 0.861 | 0.895 | 0.893 | 0.658 | 1.24 | 9.01 | 0.593 | 0.712 | 0.655 | 2.71
2 | DTYDPYLDIAL [USP36_Y268_V271I] | 0.781 | 0.451 | 0.451 | 0.721 | 0.611 | 0.982 | 1.06 | 1.6 | 0.968 | 1.55 | 0.901 | 1.03 | 1.47 | 2.42 | 1.32 | 0.892
3 | ELAKYYKLHHI [AK7_Y391_N389K] | 0.961 | 0.748 | 0.93 | 0.461 | 0.376 | 0.665 | 0.393 | 0.884 | 0.677 | 0.827 | 0.516 | 0.589 | 0.41 | 0.478 | 0.987 | 0.562
4 | FGGTVCHSPVS [PRC1_Y511_Y511C] | 0.756 | 0.596 | 0.508 | 0.452 | 0.456 | 0.548 | 0.505 | 0.688 | 0.524 | 0.627 | 0.524 | 0.38 | 0.447 | 0.576 | 0.506 | 0.493
5 | ISRASYFRKGG [ALK_Y1282_Y1278S_YF] | 0.755 | 0.45 | 0.484 | 0.456 | 0.469 | 0.597 | 0.435 | 0.664 | 0.388 | 0.724 | 0.341 | 0.4 | 0.419 | 0.506 | 0.59 | 0.37
6 | KFANSYRMEPL [TCTE3_Y87] | 0.861 | 0.653 | 0.762 | 0.465 | 0.417 | 0.534 | 0.414 | 0.574 | 0.491 | 0.623 | 0.443 | 0.43 | 0.47 | 0.528 | 0.774 | 0.409
7 | LGLDECLDKLK [FMNL2_Y352_Y352C] | 0.934 | 0.75 | 0.492 | 1.31 | 1.09 | 1.7 | 1.31 | 1.91 | 1.54 | 1.85 | 1.28 | 1.05 | 1.04 | 0.92 | 2.01 | 1.37
8 | QLAPQYTYAQG [FLNA_Y1761] | 0.887 | 3.16 | 2.01 | 0.448 | 0.65 | 0.61 | 0.624 | 0.722 | 0.704 | 1.01 | 0.714 | 0.52 | 0.61 | 0.693 | 0.696 | 1.19
9 | IKKLIYVHLVI [JAGN1_Y42] | 1.1 | 0.631 | 0.775 | 0.592 | 0.569 | 0.852 | 0.671 | 1.02 | 0.842 | 1.32 | 0.604 | 0.669 | 0.496 | 0.424 | 0.982 | 0.59
10 | DTDSSYCIPTA [GAB1_Y373] | 0.95 | 0.741 | 0.854 | 0.519 | 1.01 | 0.73 | 0.578 | 1.99 | 0.65 | 1.18 | 0.592 | 0.692 | 0.518 | 0.497 | 1.07 | 0.598
11 | EEGNPYYSSTR [MCCC2_Y520_A524T] | 0.82 | 1.22 | 1.15 | 0.722 | 0.428 | 0.67 | 1.25 | 1.1 | 0.74 | 1.1 | 0.672 | 0.595 | 0.921 | 1.44 | 0.693 | 0.531
12 | LFMGDYVDRGY [PPP2CA_Y86] | 0.696 | 0.711 | 0.927 | 0.612 | 0.701 | 0.982 | 1.01 | 1.6 | 1.02 | 1.47 | 1.46 | 0.983 | 0.699 | 0.8 | 1.41 | 0.977
13 | GYYDLYGGEKF [PTPN11_Y66_D61G] | 0.939 | 3.86 | 0.778 | 3.13 | 6.61 | 0.68 | 6.7 | 1.3 | 8.65 | 0.931 | 10.9 | 3.27 | 7.27 | 4.54 | 3.15 | 9.35
14 | RLRKYHLGKYL [KLB_Y906_Y906H] | 0.476 | 0.395 | 0.594 | 0.426 | 0.503 | 0.61 | 0.253 | 0.726 | 0.464 | 0.498 | 0.29 | 0.439 | 0.318 | 0.387 | 0.483 | 0.399
15 | KFWREYILSLE [GPC3_Y299_YF] | 1.27 | 0.932 | 1.31 | 0.422 | 0.431 | 0.912 | 0.452 | 0.999 | 0.72 | 1.2 | 0.478 | 0.552 | 0.462 | 0.588 | 0.997 | 0.666
16 | IHETTHNSIMK [ACTA1_Y281_Y281H] | 0.736 | 0.43 | 0.537 | 0.347 | 0.38 | 0.401 | 0.463 | 0.452 | 0.39 | 0.469 | 0.425 | 0.304 | 0.43 | 0.262 | 0.471 | 0.349
17 | DVYVSYDYGKS [SORL1_Y139] | 0.741 | 0.924 | 1 | 2.42 | 4.1 | 1.03 | 4.33 | 1.45 | 4.03 | 0.98 | 6.8 | 2.95 | 7.46 | 5.25 | 0.795 | 5.62

Row | Sequence | SH2 binding enrichment [1] | SH2 binding enrichment [2] | SH2 binding enrichment [3] | phosphorylation enrichment [4] | phosphorylation enrichment [5] | phosphorylation enrichment [6] | phosphorylation enrichment [7] | phosphorylation enrichment [8] | phosphorylation enrichment [9] | phosphorylation enrichment [10] | phosphorylation enrichment [11] | phosphorylation enrichment [12] | phosphorylation enrichment [13] | phosphorylation enrichment [14] | phosphorylation enrichment [15] | phosphorylation enrichment [16]
18 | HPAGNYSLSSV [ARFGAP3_Y473_Q468H] | 0.804 | 0.603 | 0.79 | 0.619 | 0.625 | 0.867 | 0.553 | 0.49 | 0.458 | 0.666 | 0.562 | 0.706 | 0.409 | 0.425 | 0.672 | 0.58
19 | IFHLSYIHNCE [PDE6B_Y227_L228I_YF] | 0.976 | 0.853 | 0.856 | 0.526 | 0.392 | 0.745 | 0.577 | 1.16 | 0.91 | 1.35 | 0.495 | 0.699 | 0.494 | 0.352 | 1.04 | 0.71
20 | DLEKTYNTYRS [B4GALNT2_Y538_A533D] | 0.654 | 0.43 | 0.511 | 0.401 | 0.424 | 0.441 | 0.761 | 0.848 | 0.703 | 0.788 | 0.554 | 0.382 | 0.845 | 1.03 | 0.823 | 0.509
21 | CTTIHYSFMCN [TP53_Y234_N235S_YF] | 1.88 | 2.62 | 4.43 | 0.942 | 0.843 | 0.828 | 0.559 | 1.08 | 0.666 | 1 | 0.636 | 0.568 | 0.563 | 0.544 | 0.734 | 0.572
22 | IGEVVYQRAVM [GRIN2A_Y502] | 0.752 | 0.477 | 0.484 | 1.46 | 0.513 | 8.27 | 2.19 | 0.869 | 0.595 | 0.856 | 0.434 | 0.883 | 1.14 | 1.57 | 0.688 | 0.554
23 | QRASDYFSQQM [GBP6_Y333_A331S_YF] | 0.668 | 0.464 | 0.964 | 0.667 | 0.711 | 1.28 | 0.866 | 1.29 | 1.39 | 1.49 | 0.684 | 1.56 | 0.662 | 0.632 | 1.02 | 0.854
24 | SVTCMYSPALN [TP53_Y126_T125M] | 0.737 | 0.457 | 0.52 | 0.667 | 0.472 | 0.97 | 0.594 | 1.39 | 0.749 | 1.47 | 0.481 | 0.738 | 0.501 | 0.804 | 1.36 | 0.632
25 | SIKDKYLTALF [KCNH2_Y611_V612L_YF] | 1.07 | 0.674 | 0.778 | 0.484 | 0.408 | 0.468 | 0.414 | 0.724 | 0.572 | 0.784 | 0.481 | 0.435 | 0.448 | 0.394 | 0.665 | 0.449
26 | VDLIVYLWTNP [TK2_Y181_R183W] | 0.713 | 0.436 | 0.682 | 0.841 | 0.397 | 0.897 | 0.456 | 1.15 | 0.955 | 1.29 | 0.483 | 0.643 | 0.421 | 0.423 | 1.21 | 0.501
27 | ALHRPYGCDVE [ABL2_Y80] | 1.01 | 0.582 | 0.72 | 0.538 | 0.357 | 0.571 | 0.379 | 0.871 | 0.531 | 0.782 | 0.412 | 0.59 | 0.447 | 0.324 | 0.541 | 0.456
28 | HFVDEYDQTIE [KRAS_Y32_P34Q] | 0.973 | 0.592 | 0.62 | 0.667 | 0.804 | 1.01 | 0.835 | 2.79 | 0.852 | 2.04 | 0.93 | 1.1 | 0.897 | 0.935 | 2.14 | 1.07
29 | ALECLYHREKR [TEKT5_Y195] | 1 | 0.446 | 0.48 | 0.451 | 0.406 | 0.927 | 0.583 | 1.26 | 0.734 | 1.15 | 0.484 | 0.618 | 0.512 | 0.571 | 0.884 | 0.675
30 | FADIAYNFRHA [PAH_Y166_G171A_YF] | 0.987 | 0.547 | 0.903 | 0.348 | 0.388 | 0.506 | 0.432 | 0.661 | 0.462 | 0.591 | 0.386 | 0.293 | 0.497 | 0.473 | 0.524 | 0.342
31 | TWQSMYGCDVG [HLA-B_Y123_L119W] | 0.899 | 0.684 | 0.661 | 0.548 | 0.6 | 1.03 | 0.498 | 1.02 | 0.802 | 1.22 | 0.533 | 0.933 | 0.531 | 0.735 | 1.37 | 0.63
32 | DFPMGYPSYLA [TBCK_Y153_I151M] | 0.825 | 0.572 | 0.827 | 0.362 | 0.464 | 0.507 | 0.367 | 0.65 | 0.473 | 0.751 | 0.412 | 0.399 | 0.443 | 0.416 | 0.663 | 0.453
33 | KMMGRYEMYAR [UPB1_Y362_T359M] | 1.29 | 1.11 | 0.826 | 0.302 | 0.543 | 0.367 | 0.51 | 0.711 | 0.529 | 0.711 | 0.5 | 0.374 | 0.333 | 0.414 | 0.966 | 0.551
